{
  "source": "patent US20070173444A1",
  "about": "(AFFYMAX, published 2007)",
  "key": {"[1]": {"target": "T1, native IL-5R a/β complex on TF-1 cells (human, UniProt Q01344 21-420; P32927 17-897)", "T1 sequence (looked up) 1": "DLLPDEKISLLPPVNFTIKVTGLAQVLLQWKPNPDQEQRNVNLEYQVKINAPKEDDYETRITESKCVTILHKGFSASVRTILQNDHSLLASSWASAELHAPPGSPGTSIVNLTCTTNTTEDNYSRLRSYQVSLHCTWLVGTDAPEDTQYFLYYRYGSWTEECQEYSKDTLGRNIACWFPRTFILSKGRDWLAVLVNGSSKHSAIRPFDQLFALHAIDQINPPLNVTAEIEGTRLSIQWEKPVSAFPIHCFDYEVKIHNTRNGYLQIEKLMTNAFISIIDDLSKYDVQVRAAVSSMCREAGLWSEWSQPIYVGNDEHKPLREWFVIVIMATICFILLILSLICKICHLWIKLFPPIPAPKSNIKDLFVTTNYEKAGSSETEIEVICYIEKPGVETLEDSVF", "T1 sequence (looked up) 2": "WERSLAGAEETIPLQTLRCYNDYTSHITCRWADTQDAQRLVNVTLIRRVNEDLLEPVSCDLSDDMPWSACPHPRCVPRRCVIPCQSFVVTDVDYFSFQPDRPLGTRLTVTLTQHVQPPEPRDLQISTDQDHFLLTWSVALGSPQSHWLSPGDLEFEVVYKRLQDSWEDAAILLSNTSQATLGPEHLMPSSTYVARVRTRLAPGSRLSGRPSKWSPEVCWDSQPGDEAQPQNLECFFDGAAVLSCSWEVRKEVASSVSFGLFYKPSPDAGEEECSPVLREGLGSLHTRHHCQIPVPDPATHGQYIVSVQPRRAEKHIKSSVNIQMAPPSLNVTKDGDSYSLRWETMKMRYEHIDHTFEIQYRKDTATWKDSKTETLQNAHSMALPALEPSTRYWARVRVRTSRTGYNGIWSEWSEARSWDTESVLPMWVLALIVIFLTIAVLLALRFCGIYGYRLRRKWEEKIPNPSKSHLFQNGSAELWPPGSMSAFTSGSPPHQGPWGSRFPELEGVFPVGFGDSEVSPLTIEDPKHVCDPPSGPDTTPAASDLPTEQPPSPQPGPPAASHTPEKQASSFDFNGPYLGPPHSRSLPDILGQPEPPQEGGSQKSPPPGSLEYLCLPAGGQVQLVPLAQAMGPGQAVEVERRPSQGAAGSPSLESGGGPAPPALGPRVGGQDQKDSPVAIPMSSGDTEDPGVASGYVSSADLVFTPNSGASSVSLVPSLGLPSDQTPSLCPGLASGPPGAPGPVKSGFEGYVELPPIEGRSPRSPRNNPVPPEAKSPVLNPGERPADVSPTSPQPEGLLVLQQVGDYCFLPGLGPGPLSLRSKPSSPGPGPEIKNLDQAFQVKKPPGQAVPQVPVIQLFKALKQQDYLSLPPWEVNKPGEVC", "test": "cell-based or functional assay"}, "[2]": {"target": "T2, IL-5RaECD (the extracellular domain (ECD) of the human IL-5 receptor a chain) (human, UniProt Q01344 21-342, extensively glycosylated)", "T2 construct": "extracellular domain; also called IL-5RαECD; soluble IL-5Ra", "T2 sequence (Q01344 21-342, looked up)": "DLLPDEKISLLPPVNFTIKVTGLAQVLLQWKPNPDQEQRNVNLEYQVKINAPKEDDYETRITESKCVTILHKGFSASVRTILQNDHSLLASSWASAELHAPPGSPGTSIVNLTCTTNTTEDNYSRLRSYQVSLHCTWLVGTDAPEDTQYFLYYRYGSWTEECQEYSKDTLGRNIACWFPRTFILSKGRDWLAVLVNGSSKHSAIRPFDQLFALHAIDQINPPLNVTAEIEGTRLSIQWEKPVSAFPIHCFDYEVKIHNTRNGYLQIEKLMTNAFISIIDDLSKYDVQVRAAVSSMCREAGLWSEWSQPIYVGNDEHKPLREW", "test": "scintillation proximity competition assay, 20 pM [125I] IL-5, soluble IL-5Ra on beads; dimer of the printed monomer", "experimental": "Binding affinities of synthetic peptides for IL-5Ra were measured in a scintillation proximity assay (SPA) using radio-iodinated IL-5. Streptavidin coated SPA beads (Amersham) were suspended in IL-5 binding buffer (phosphate buffered saline, 0.1% bovine serum albumin, 0.2% NaN3) at 2 mg beads/ml of buffer. Biotinylated mAb 179 was adsorbed onto the beads at a ratio of 2 ig Ab/mg beads by incubating the beads and antibody with agitation for at least 2 h. at 4. The beads were pelleted at 2500 rpm and resuspended at 2 mg/ml in binding buffer. Soluble IL-5Ra was then adsorbed onto the beads by diluting a solution of soluble receptor harvest 1:500 into the bead suspension and incubating with agitation for 2 hr at 4. The beads were again pelleted at 2500 rpm and resuspended at 2 mg/ml in binding buffer. Competition binding assays were carried out in 100p1 reactions in white polystyrene microtiter plates. These reactions contained 0.05 mg of receptor coated SPA beads, various concentrations of test peptide diluted in binding buffer, and 20 pM [₁₂₅I] IL-5 (Amersham). The plates were incubated at room temperature for 1 hour with agitation, then centrifuged for 5 min at 1500 rpm followed by scintillation counting on a Topcount instrument (Packard). Total binding was defined by the amount of [₁₂₅I] IL-5 bound in the absence of any competitor. Non-specific binding was defined by the amount of [₁₂₅I] IL-5 bound in the presence of 30 nM IL-5. Peptide binding data was analyzed to determine the peptide concentration required to reduce specific [₁₂₅I] IL-5 binding by 50% (IC₅₀). In each instance, the dimer has both intramolecular and intermolecular disulfide linkages as shown generically below: […]"}, "[3]": {"target": "T2, IL-5RaECD (the extracellular domain …)", "test": "competition with [125I] IL-5 for binding to IL-5Ra ECD; peptide assayed immediately after dissolving", "experimental": "(§1) Binding affinities of synthetic peptides for IL-5Ra were measured in a competition binding assay using radio-iodinated IL-5. Immulon 4 (Dynatech) microtiter wells were coated with streptavidin (Sigma) by incubating 100 ul of a 50 ug/ml solution in PBS for 30 min. at 37. The wells were blocked with 200 ul of 1% BSA in PBS for 15 min. at 37, followed by 100 III of biotinylated monoclonal antibody, designated mAb 179, at 5 u. g/ml in PBS. Soluble IL-5Ra was then immobilized in the wells by incubating 100 µl of a solution of soluble receptor harvest diluted 1: 5000 in PBS/0.1% BSA for 1 hr. at 4. After washing away unbound receptor, 50 ul of various concentrations of test peptide diluted in PBS/0.1% BSA were added to the wells, followed by 50 µl of a fixed concentration of [₁₂₅I] IL-5 (Amersham). The binding reactions were incubated at 4 C for 2 hr, then washed with PBS to remove unbound [₁₂₅I] IL-5. Bound [₁₂₅I] IL-5 was determined by gamma counting.\n(§2) Total binding was defined by the amount of [₁₂₅I] IL-5 bound in the absence of any competitor. Non-specific binding was defined by the amount of [₁₂₅I] IL-5 bound in the presence of 30 nM IL-5. Peptide binding data was analyzed to determine the peptide concentration required to reduce specific [₁₂₅I]"}, "[4]": {"target": "T2, IL-5RaECD (the extracellular domain …)", "test": "competition with [125I] IL-5 for binding to IL-5Ra ECD; peptide after 10 days (disulfide-linked dimer)", "experimental": "as §1, §2"}},
  "note": "Bridge positions count the residues as written; N and C are the ends. Square brackets hold non-standard residues; d marks the D form. Ends that are not written are not given here. Ahx = NCCCCCC(=O)O",
  "data": [
    {"binder": "H-EGYVCVEWARCPTCR-OH (disulfide (positions not given here); also: dimer, intramolecular and intermolecular disulfide linkages, places not given here)", "note": "[dimer of (H)-EGYVCVEWARCPTCR-(OH)]", "values": [
      {"measurement": "Microphysiometer pIC50 (block of TF-1 cell response to IL-5)", "setting": "[1]", "result": "9.6 negative log of the molar IC50"},
      {"measurement": "SPA pIC50", "setting": "[2]", "result": "8.4 negative log of the molar IC50"}
    ]},
    {"binder": "H-EGYVCVEFARCPTCR-OH (disulfide (positions not given here); also: dimer, intramolecular and intermolecular disulfides, places not given here)", "note": "[dimer of (H)-EGYVCVEFARCPTCR-(OH)]", "values": [
      {"measurement": "SPA pIC50", "setting": "[2]", "result": "6.8 negative log of the molar IC50"}
    ]},
    {"binder": "[Ahx]EGYVCVEWARCPTCR-NH2 (disulfide (positions not given here); also: dimer, intramolecular and intermolecular disulfides, places not given here)", "note": "[dimer of (Ahx)-EGYVCVEWARCPTCR-(NH2)]", "values": [
      {"measurement": "Microphysiometer pIC50 (block of TF-1 cell response to IL-5)", "setting": "[1]", "result": "9 negative log of the molar IC50"}
    ]},
    {"binder": "H-GYVCVEFARCPTCG-NH2 (disulfide (positions not given here); also: dimer, intramolecular and intermolecular disulfide linkages, places not given here)", "note": "[dimer of (H)-GYVCVEFARCPTCG-(NH2)]", "values": [
      {"measurement": "SPA pIC50", "setting": "[2]", "result": "6.1 negative log of the molar IC50"}
    ]},
    {"binder": "Ac-EGYVCVEWAACPTCR-NH2 (disulfide (positions not given here); also: dimer, intramolecular and intermolecular disulfides, places not given here)", "note": "[dimer of (Ac)-EGYVCVEWAACPTCR-(NH2)]", "values": [
      {"measurement": "Microphysiometer pIC50 (block of TF-1 cell response to IL-5)", "setting": "[1]", "result": "6.9 negative log of the molar IC50"}
    ]},
    {"binder": "Ac-EGYVCVEWARCPTCR-NH2 (disulfide (positions not given here); also: dimer, intramolecular and intermolecular disulfides, places not given here)", "note": "[dimer of (Ac)-EGYVCVEWARCPTCR-(NH2)]", "values": [
      {"measurement": "Microphysiometer pIC50 (block of TF-1 cell response to IL-5)", "setting": "[1]", "result": "9.1 negative log of the molar IC50"}
    ]},
    {"binder": "H-EGYVCVEWARCPTCR-NH2 (disulfide (positions not given here); also: dimer, intramolecular and intermolecular disulfide linkages, places not given here)", "note": "[dimer of (H)-EGYVCVEWARCPTCR-(NH2)]", "values": [
      {"measurement": "Microphysiometer pIC50 (block of TF-1 cell response to IL-5)", "setting": "[1]", "result": "9.1 negative log of the molar IC50"},
      {"measurement": "SPA pIC50", "setting": "[2]", "result": "8.1 negative log of the molar IC50"}
    ]},
    {"binder": "TGGGDGYVCVEWARCPTCK (three Cys in free sulfhydryl form, T0005 prints 32-50)", "note": "[AF17362 (three cysteine residues in the free sulfhydryl form)]", "values": [
      {"measurement": "IC50", "setting": "[3]", "result": 120, "unit": "nM"}
    ]},
    {"binder": "H-EGYVCVEFARCPTCR-NH2 (disulfide (positions not given here); also: dimer, intramolecular and intermolecular disulfides, places not given here)", "note": "[dimer of (H)-EGYVCVEFARCPTCR-(NH2)]", "values": [
      {"measurement": "SPA pIC50", "setting": "[2]", "result": "6.4 negative log of the molar IC50"}
    ]},
    {"binder": "H-EGYVCVEWARCPTCK-OH (disulfide (positions not given here); also: dimer, intramolecular and intermolecular disulfide linkages, places not given here)", "note": "[dimer of (H)-EGYVCVEWARCPTCK-(OH)]", "values": [
      {"measurement": "Microphysiometer pIC50 (block of TF-1 cell response to IL-5)", "setting": "[1]", "result": "9.2 negative log of the molar IC50"},
      {"measurement": "SPA pIC50", "setting": "[2]", "result": "8.7 negative log of the molar IC50"}
    ]},
    {"binder": "H-GYVCVEWARCPTCR-OH (disulfide (positions not given here); also: dimer, intramolecular and intermolecular disulfide linkages, places not given here)", "note": "[dimer of (H)-GYVCVEWARCPTCR-(OH)]", "values": [
      {"measurement": "Microphysiometer pIC50 (block of TF-1 cell response to IL-5)", "setting": "[1]", "result": "8.4 negative log of the molar IC50"},
      {"measurement": "SPA pIC50", "setting": "[2]", "result": "8.2 negative log of the molar IC50"}
    ]},
    {"binder": "TGGGDGYVCVEWARCPTCK (disulfide 15-18; also: dimer, interchain disulfide between Cys9 of each chain, Formed by air oxidation in 50 mM Tris pH 7.8; said to be indistinguishable from AF18748; also called AF17362 after 10 days at room temperature; spontaneously formed disulfide-linked dimer)", "note": "[dimeric form of AF17362]", "values": [
      {"measurement": "IC50", "setting": "[4]", "result": 0.55, "unit": "nM"}
    ]},
    {"binder": "H-EGYVCVEWARCPTCG-NH2 (disulfide (positions not given here); also: dimer, intramolecular and intermolecular disulfide linkages, places not given here)", "note": "[dimer of (H)-EGYVCVEWARCPTCG-(NH2)]", "values": [
      {"measurement": "Microphysiometer pIC50 (block of TF-1 cell response to IL-5)", "setting": "[1]", "result": "9.1 negative log of the molar IC50"}
    ]},
    {"binder": "H-EGYVCVEFARCPTCG-NH2 (disulfide (positions not given here); also: dimer, intramolecular and intermolecular disulfides, places not given here)", "note": "[dimer of (H)-EGYVCVEFARCPTCG-(NH2)]", "values": [
      {"measurement": "SPA pIC50", "setting": "[2]", "result": "6.6 negative log of the molar IC50"}
    ]},
    {"binder": "Ac-EGYVCVEWARCPTCK-NH2 (disulfide (positions not given here); also: dimer, intramolecular and intermolecular disulfides, places not given here)", "note": "[dimer of (Ac)-EGYVCVEWARCPTCK-(NH2)]", "values": [
      {"measurement": "Microphysiometer pIC50 (block of TF-1 cell response to IL-5)", "setting": "[1]", "result": "8.4 negative log of the molar IC50"}
    ]}
  ]
}
